Data on 22 molecules can be found in publication PMC10308901, “In vitro and ex vivo proteomics of Mycobacterium marinum biofilms and the development of biofilm-binding synthetic nanobodies” (mSystems, 2023).

Where a chain is given by its changes, count along the chain named.

To fix the notation:
B1: GroEL1 sybody number 5 (VHH)
VHH: QVQLVESGGGLVQAGGSLRLSCAASGFPVEHKQMRWYRQAPGKEREWVAAIESSGQYTIYADSVKGRFTISRDNAKNTVYLQMNSLKPEDTAVYYCFVGVGAGYYGQGTQVTVSA
notes: not shown: Myc, C-terminal, kept; His6, C-terminal, kept
B2: GroEL1 sybody number 18 (VHH)
VHH: QVQLVESGGGLVQAGGSLRLSCAASGFPVKTKHMYWYRQAPGKEREWVAAITSIGMITAYADSVKGRFTISRDNAKNTVYLQMNSLKPEDTAVYYCNVKDWGTNRQAYDYWGQGTQVTVSA
notes: as for B1
B3: GroEL1 sybody number 1 (VHH)
VHH: QVQLVESGGGLVQAGGSLRLSCAASGFPVEQRQMYWYRQAPGKEREWVAAIQSYGKRTKYADSVKGRFTISRDNAKNTVYLQMNSLKPEDTAVYYCVVYVGGGYKGQGTQVTVSA
notes: as for B1
B4: GroEL1 sybody number 9 (VHH)
VHH: QVQLVESGGGLVQAGGSLRLSCAASGLPVWQQGMTWYRQAPGKEREWVAAIDSVGAQTYYADSVKGRFTISRDNAKNTVYLQMNSLKPEDTAVYYCAVNVGARYIGQGTQVTVSA
notes: as for B1
B5: GroEL1 sybody number 12 (VHH)
VHH: QVQLVESGGGLVQAGGSLRLSCAASGFPVTQAWMEWYRQAPGKEREWVAAIFSHGGGTFYADSVKGRFTISRDNAKNTVYLQMNSLKPEDTAVYYCNVKDTGERDNWYDYWGQGTQVTVSA
notes: as for B1
B6: GroEL1 sybody number 31 (VHH)
VHH: QVQLVESGGGSVQAGGSLRLSCAASGTIYKIYYLGWFRQAPGKEREGVAALNTFSGGTYYADSVKGRFTVSLDNAKNTVYLQMNSLKPEDTALYYCAAAYDMEGYAWPLYWWHYEYWGQGTQVTVSA
notes: also called GroEL1_SB31; not shown: Myc, C-terminal, kept; His6, C-terminal, kept
B7: GroEL2 sybody number 2 (VHH)
VHH: QVQLVESGGGLVQAGGSLRLSCAASGFPVSSSTMTWYRQAPGKEREWVAAIDSVGNETYYADSVKGRFTISRDNAKNTVYLQMNSLKPEDTAVYYCAVFVGSYYGQGTQVTVSA
notes: as for B1
B8: GroEL2 sybody number 3 (VHH)
VHH: QVQLVESGGGLVQAGGSLRLSCAASGFPVAYWEMVWYRQAPGKEREWVAAIRSTGWKTVYADSVKGRFTISRDNAKNTVYLQMNSLKPEDTAVYYCTAVYVGVHYKGQGTQVTVSA
notes: also called GroEL2_SB3; not shown: Myc, C-terminal, kept; His6, C-terminal, kept
B9: GroEL2 sybody number 32 (VHH)
VHH: QVQLVESGGGLVQAGGSLRLSCAASGFPVVSQFMEWHRQAPGKEREWVAAIDSTGYSTFYADSVKGRFTISRDNAKNTVYLQMNSLKPEDTAVYYCNVKDAGEGQEQYDYWGQGTQVTVSA
notes: as for B1
B10: GroEL2 sybody number 19 (VHH)
VHH: QVQLVESGGGLVQAGGSLRLSCAASGFPVEWLEMAWYRQAPGKEREWVAAIYSYGMETEYADSVKGRFTISRDNAKNTVYLQMNSLKPEDTAVYYCNVKDGGHAAWWYDYWGQGTQVTVSA
notes: as for B1
B11: GroEL2 sybody number 1 (VHH)
VHH: QVQLVESGGGLVQAGGSLRLSCAASGFPVAITYMHWYRQAPGKEREWVAAISSTGKTTWYADSVKGRFTISRDNAKNTVYLQMNSLKPEDTAVYYCLVEVGHYYKGQGTQVTVSA
notes: as for B1
B12: GroEL2 sybody number 8 (VHH)
VHH: QVQLVESGGGLVQAGGSLRLSCAASGFPVYMSWMYWYRQAPGKEREWVAAIMSEGAGTWYADSVKGRFTISRDNAKNTVYLQMNSLKPEDTAVYYCNVKDTGSFHAQYDYWGQGTQVTVSA
notes: as for B1
B13: GroEL2 sybody number 9 (VHH)
VHH: B12 VHH with M31Q, E54D, A56S, T101F, S103H, F104S, H105R, A106S, Q107R
notes: also called GroEL2_SB9; not shown: Myc, C-terminal, kept; His6, C-terminal, kept
B14: GroEL2 sybody number 22 (VHH)
VHH: B12 VHH with M31H, E54D, A56H, F104S, H105T, A106T, Q107I
notes: as for B1
B15: GroEL2 sybody number 7 (VHH)
VHH: B12 VHH with Y30N, M31D, S32A, E54M, A56F, T101R, S103K, F104E, A106F, Q107S
notes: as for B1
B16: GroEL2 sybody number 31 (VHH)
VHH: B12 VHH with Y30W, S32E, A56D, T101F, S103Y, F104N, H105N, A106N, Q107Y
notes: as for B1
B17: GroEL2 sybody number 33 (VHH)
VHH: B12 VHH with M31Q, S32H, E54Q, K65R, T101L, S103K, F104A, H105E, A106Y, Q107N
notes: as for B1
B18: GroEL2 sybody number 28 (VHH)
VHH: QVQLVESGGGLVQAGGSLRLSCAASGFPVDAYWMYWYRQAPGKEREWVAAIMSSGHGTWYADSVKGRFTISRDNAKNTVYLQMNSLKPEDTAVYSCNVKDKGAQAAWYDYWGQGTQVTVSA
notes: as for B1
B19: GroEL2 sybody number 16 (VHH)
VHH: QVQLVESGGGLVQAGGSLRLSCAASGFPVSSSTMTWYRQAPGKEREWVAAIESWGAYTWYADSVKGRFTISRDNAKNTVYLQMNSLKPEDTAVYYCNVKDYDGVADVIYDYWGQGTQVTVSA
notes: as for B1
B20: GroEL2 sybody number 11 (VHH)
VHH: QVQLVESGGGLVQAGGSLRLSCAASGFPVDSAYMWWYRQAPGKEREWVAAIESNGEYTFYADSVKGRFTISRDNAKNTVYLQMNSLKPEDTAVYYCNVKDTGAHHSYYDYWGQGTQVTVSA
notes: as for B1
B21: GroEL2 sybody number 27 (VHH)
VHH: B20 VHH with D30W, S31K, E56A, A103S, H104D, H105S, S106E, Y107N
notes: as for B1
B22: GroEL2 sybody number 10 (VHH)
VHH: QVQLVESGGGLVQAGGSLRLSCAASGFPVKHWYMHWYRQAPGKEREWVAAIQSTGSYTAYADSVKGRFTISRDNAKNTVYLQMNSLKPEDTAVYYCNVKEYGFYHASYDYWGQGTQVTVSA
notes: as for B1

One assay has as its target T1, Mycobacterium marinum GroEL1, recombinant (Mycobacterium marinum, UniProt B2HD10 1-539).
T1 construct: also called Mmr GroEL1
The assay can be described thus: BLI. The note with it: both partners purified.
Take B1: the Kd was around 0.127 µM.

Consider B2, for which the Kd was around 0.022 µM.

For the molecule B3, the Kd was around 0.13 µM.

Turning to B4, the Kd is around 0.064 µM.

Turning to B5, the Kd was around 0.014 µM.

On to B6, for which the equilibrium dissociation constant (Kd) is around 0.092 µM.

In another assay the target is T2, Mycobacterium marinum GroEL2, recombinant, biotinylated AVI-tagged form (Mycobacterium marinum, UniProt B2HQP9 1-541).
T2 construct: also called Mmr GroEL2; biotinylated GroEL protein
Put plainly: BLI. The note with it: both partners purified.
On to B7, for which the Kd was around 0.157 µM.

Regarding B8, the Kd is around 0.018 µM.

B9: the dissociation constant (Kd) is around 0.153 µM.

For the molecule B10, the Kd is around 0.366 µM.

B11: the Kd was around 0.591 µM.

For the molecule B12, the Kd is around 0.013 µM.

B13: the Kd was around 0.277 µM.

Consider B14, for which the dissociation constant Kd is around 0.507 µM.

For B15, the equilibrium dissociation constant (Kd) is around 0.1 µM.

Take B16: the Kd was around 0.066 µM.

For B17, the Kd was around 0.244 µM.

B18: the Kd is around 0.035 µM.

Take B19: the Kd is around 0.015 µM.

Consider B20, for which the Kd is around 0.271 µM.

B21: the equilibrium dissociation constant (Kd) is around 0.101 µM.

As to B22, the Kd was around 0.193 µM.
